{"source": "paper doi:10.1101/2025.01.06.631460", "about": "(bioRxiv, 2025)", "proteins": {"B1": {"name": "CNGC14-GFP (natural protein, Arabidopsis thaliana, UniProt Q9SJA4 1-726, looked up)", "chain": "MEFKRDNTVRFYGDEKQTIEVGEKRVPLFKSTTAPFMKQEVLPKKSKTRLKIPRFGRFKVFPENFEIERDKILDPGGDAVLQWNRVFLFWCLVALYVDPLFFFLSSVKRIGRSSCMTTDLKLGIVITFFRTLADLFYVLHIVIKFRTAYVSRTSRVFGRGELVKDPKLIARRYLRSDFIVDLIACLPLPQIVSWFILPSIRSSHSDHTTNALVLIVLVQYIPRLYLIFPLSAEIIKATGVVTTTAWAGAAYNLLQYMLASHILGSAWYLLSIERQATCWKAECHKESVPLQCVTDFFDCGTLHRDDRNNWQNTTVVFSNCDPSNNIQFTFGIFADALTKNVVSSPFLEKYLYCLWFGLQNLSSYGQNLSTSTSVLETMFAILVAIFGLVLFALLIGNMQTYLQSITVRLEEWRLKRRDTEEWMGHRLLPQNLRERVRRFVQYKWLATRGVDEETILHSLPADLRRDIQRHLCLDLVRRVPLFAQMDDQLLDAICERLASSLSTQGNYIVREGDPVTEMLFIIRGKLESSTTNGGRTGFFNSITLRPGDFCGEELLAWALLPKSTVNLPSSTRTVRALEEVEAFALQAGDLKFVANQFRRLHSKKLQHTFRYYSHQWRTWAACFVQVAWRRYKRKKLAKSLSLAESFSSYDEEEAVAVAATEEMSHEGEAQSGAKARHHTSNVKPHFAATILASRFAKNTRRTAHKLKDVEIPMLPKPDEPDFSVDD"}}, "molecular_target": "the molecule itself", "assay": "single molecule photobleaching", "data": [{"protein": "B1", "values": [{"measurement": "stoichiometry N", "value": 4}]}]}
